B1: anti-DLL3 trispecific protein 2C09 (protein, part only; not given: anti-CD3 and anti-albumin domains, part only)
chain, part: EVQLVESGGGLVQPGGSLTLSCVPSGSTSNINAMGWYRRAPGKQRELPAGISSDGTKIYADSAKVPFTITRDNAKNSVYLQMNSLRAEDTAVYYCYYFRTVSGTSMRYWGQGTLVTVSSGGGGSGGGSGGGGSGGGSHHHHHH
B2: anti-DLL3 trispecific protein 3D07 (protein, part only; not given: anti-CD3 and anti-albumin domains, part only)
chain, part: EVQLVESGGGLVQPGGSLTLSCAASGSSVRFLSMAWYRQAPGKKRELVAGISADGSTDYIDSVKGRFTISRDNAKNSVYLQMNSLRAEDTAVYYCYAYSWTTRYTYWGQGTLVTVSSGGGGSGGGSGGGGSGGGSHHHHHH
B3: anti-DLL3 trispecific protein 4C03 (protein, part only; not given: CD3 fragment and albumin sdAb, part only)
chain, part: EVQLVESGGGLVQPGGSLTLSCAASGSKVSFMSMAWYRQAPGKKRELVAGISVDGSTDYIDSVKGRFTISRDNAKNSVYLQMNSLRAEDTAVYYCYAYRWRTRYTYWGQGTLVTVSSGGGGSGGGSGGGGSGGGSHHHHHH
B4: anti-DLL3 trispecific protein 4D05 (protein, part only; not given: anti-CD3 fragment and anti-albumin domain, part only)
chain, part: EVQLVESGGGLVQPGGSLTLSCAASGSSSSFLSMAWYRQAPGKKRELVAGISADGSTVYIDSVKGRFTISRDNAKNSVYLQMNSLRAEDTAVYYCYAYRWTTRRTYWGQGTLVTVSSGGGGSGGGSGGGGSGGGSHHHHHH
B5: anti-DLL3 trispecific protein 3A09 (protein, part only; not given: CD3 binder and albumin binder, part only)
chain, part: EVQLVESGGGLVQPGGSLTLSCAASGSSVSFLSMAWYRQAPGKKRELVAGISADGSVDYIDSVKGRFTISRDNAKNSVYLQMNSLRAEDTAVYYCYAYRWTTRYIYWGQGTLVTVSSGGGGSGGGSGGGGSGGGSHHHHHH
B6: anti-DLL3 trispecific protein 4H04 (protein, part only; not given: anti-CD3 fragment and anti-albumin sdAb, part only)
chain, part: EVQLVESGGGLVQPGGSLTLSCAASGSSVKFLSMAWYRQAPGKKRELVAGVSADGSTDYIDSVKGRFTISRDNAKNSVYLQMNSLRAEDTAVYYCYAYEWTTRYTYWGQGTLVTVSSGGGGSGGGSGGGGSGGGSHHHHHH
B7: anti-DLL3 trispecific protein 4C011 (protein, part only; not given: anti-CD3 and anti-albumin domains, part only)
chain, part: EVQLVESGGGLVQPGGSLTLSCAASGSRVSFLSMAWYRQAPGKKRELVAGISADGSTVYIDSVKGRFTISRDNAKNSVYLQMNSLRAEDTAVYYCYAYRWTRRYTYWGQGTLVTVSSGGGGSGGGSGGGGSGGGSHHHHHH
B8: anti-DLL3 trispecific protein 4C02 (protein, part only; not given: CD3 fragment and albumin sdAb, part only)
chain, part: EVQLVESGGGLVQPGGSLTLSCAASGSKVSFLSMAWYRQAPGKKRELVAGISADGSTTYIDSVKGRFTISRDNAKNSVYLQMNSLRAEDTAVYYCYAYRWTTRFTYWGQGTLVTVSSGGGGSGGGSGGGGSGGGSHHHHHH
B9: anti-DLL3 trispecific protein 2D07 (protein, part only; not given: anti-CD3 fragment and anti-albumin sdAb, part only)
chain, part: EVQLVESGGGLVQPGGSLTLSCVASGSTSSINAVGWYRRAPGKQRELVAGISSDGTKVYRDSVKGRFTISRDNAKNSVYLQMNSLRAEDTAVYYCYYFRTVQGSSMRYWGQGTLVTVSSGGGGSGGGSGGGGSGGGSHHHHHH
B10: anti-DLL3 trispecific protein 1C03 (protein, part only; not given: anti-CD3 and anti-albumin domains, part only)
chain, part: EVQLVESGGGLVQPGGSLTLSCVASGSTSSINAMAWYRRAPGKQRELVAGISSDNSKVYADSVKGRFTISRDNAKNSVYLQMNSLRAEDTAVYYCYYFRTVGGSSMRYWGQGTLVTVSSGGGGSGGGSGGGGSGGGSHHHHHH
B11: anti-DLL3 trispecific protein 2H04 (protein, part only; not given: anti-CD3 fragment and anti-albumin domain, part only)
chain, part: EVQLVESGGGLVQPGGSLTLSCVASGSTSSINAMGWYRRAPGKQRELVAGISSDTSKVYADSVKGRFTISRDNAKNSVYLQMNSLRAEDTAVYYCYYFRTVSGSYMRYWGQGTLVTVSSGGGGSGGGSGGGGSGGGSHHHHHH
B12: anti-DLL3 trispecific protein 1H011 (protein, part only; not given: anti-CD3 and anti-albumin domains, part only)
chain, part: EVQLVESGGGLVQPGGSLTLSCVASGSTSSINAIGWYRRAPGKQRELVAGISSDGSKVYNDSVKGRFTISRDNAKNSVYLQMNSLRAEDTAVYYCYYFRTQSGSSMRYWGQGTLVTVSSGGGGSGGGSGGGGSGGGSHHHHHH
B13: anti-DLL3 trispecific protein 2C06 (protein, part only; not given: CD3 binder and albumin binder, part only)
chain, part: EVQLVESGGGLVQPGGSLTLSCVASGSTNSINAMGWYRRAPGKQRELVAGISSDGSKVYKDSVKGRFTISRDNAKNSVYLQMNSLRAEDTAVYYCYYYRTVSGSSMRYWGQGTLVTVSSGGGGSGGGSGGGGSGGGSHHHHHH
B14: anti-DLL3 trispecific protein 2C08 (protein, part only; not given: anti-CD3 and anti-albumin domains, part only)
chain, part: EVQLVESGGGLVQPGGSLTLSCVASGSTSRINAMGWYRRAPGKQRELVAGISSDGSKVYQDSVKGRFTISRDNAKNSVYLQMNSLRAEDTAVYYCYYFRRVSGSSMRYWGQGTLVTVSSGGGGSGGGSGGGGSGGGSHHHHHH
B15: anti-DLL3 trispecific protein 1C02 (protein, part only; not given: anti-CD3 fragment and anti-albumin sdAb, part only)
chain, part: EVQLVESGGGLVQPGGSLTLSCVASGSTSSINAMAWYRRAPGKQRELVAGISSDGSKVYSDSVKGRFTISRDNAKNSVYLQMNSLRAEDTAVYYCYYFRTVSGSSMRSWGQGTLVTVSSGGGGSGGGSGGGGSGGGSHHHHHH
B16: anti-DLL3 trispecific protein 1G01 (protein, part only; not given: CD3 binder and albumin binder, part only)
chain, part: EVQLVESGGGLVQPGGSLTLSCVASGSTSSINAMAWYRRAPGKQRELVAGISSDGSKVYAESVKGRFTISRDNAKNSVYLQMNSLRAEDTAVYYCYYFRTVSGASMRYWGQGTLVTVSSGGGGSGGGSGGGGSGGGSHHHHHH
B17: anti-DLL3 trispecific protein 2E02 (protein, part only; not given: anti-CD3 fragment and anti-albumin sdAb, part only)
chain, part: EVQLVESGGGLVQPGGSLTLSCVASGSTSAINAMGWYRRAPGKQRELVAGISSDGSKVYVDSVKGRFTISRDNAKNSVYLQMNSLRAEDTAVYYCYYFRTVSGSSQRYWGQGTLVTVSSGGGGSGGGSGGGGSGGGSHHHHHH
B18: anti-DLL3 trispecific protein 2D04 (protein, part only; not given: CD3 binder and albumin binder, part only)
chain, part: EVQLVESGGGLVQPGGSLTLSCVASGSTSSINAVGWYRRAPGKQRELVAGISSDGSKVYRDSVKGRFTISRDNAKNSVYLQMNSLRAEDTAVYYCYYFRTVQGSSMRYWGQGTLVTVSSGGGGSGGGSGGGGSGGGSHHHHHH
B19: anti-DLL3 trispecific protein 2C04 (protein, part only; not given: anti-CD3 fragment and anti-albumin sdAb, part only)
chain, part: EVQLVESGGGLVQPGGSLTLSCVASGSTSSRNAMGWYRRAPGKQRELVAGISSDGSKLYADSVKGRFTISRDNAKNSVYLQMNSLRAEDTAVYYCYYFRTVLGSSMRYWGQGTLVTVSSGGGGSGGGSGGGGSGGGSHHHHHH
B20: anti-DLL3 trispecific protein 1F010 (protein, part only; not given: anti-CD3 fragment and anti-albumin sdAb, part only)
chain, part: EVQLVESGGGLVQPGGSLTLSCVASGSTSRINAMGWYRRAPGKQRELVAGISSDGSKVYKDSVKGRFTISRDNAKNSVYLQMNSLRAEDTAVYYCYYFRTVSGSSMRYWGQGTLVTVSSGGGGSGGGSGGGGSGGGSHHHHHH
B21: anti-DLL3 trispecific protein 2H010 (protein, part only; not given: CD3 fragment and albumin sdAb, part only)
chain, part: EVQLVESGGGLVQPGGSLTLSCVASGSTSSINAMGWYRRAPGKQRELAAGISSDGSKLYADSVKGRFTISRDNAKNSVYLQMNSLRAEDTAVYYCYYFRTVSGSSMRYWGQGTLVTVSSGGGGSGGGSGGGGSGGGSHHHHHH
B22: anti-DLL3 trispecific protein 2G07 (protein, part only; not given: anti-CD3 and anti-albumin domains, part only)
chain, part: EVQLVESGGGLVQPGGSLTLSCVASGSTSSINAMAWYRRAPGKQRELVAGISSDGSKVYADSVKGRFTISRDNAKNSVYLQMNSLRAEDTAVYYCYYFRTVQGSSMRYWGQGTLVTVSSGGGGSGGGSGGGGSGGGSHHHHHH
B23: anti-DLL3 trispecific protein 1A010 (protein, part only; not given: anti-CD3 fragment and anti-albumin domain, part only)
chain, part: EVQLVESGGGLVQPGGSLTLSCVASGSTSSINAYGWYRRAPGKQRELVAGISSDGSKVYADSVKGRFTISRDNAKNSVYLQMNSLRAEDTAVYYCYYFRTVYGSSMRYWGQGTLVTVSSGGGGSGGGSGGGGSGGGSHHHHHH
B24: anti-DLL3 trispecific protein 1A03 (protein, part only; not given: CD3 fragment and albumin sdAb, part only)
chain, part: EVQLVESGGGLVQPGGSLTLSCVASGSTSSINAMAWYRRAPGKQRELVAGISSDGSKVYADSVKGRFTISRDNAKNSVYLQMNSLRAEDTAVYYCYYFRTVSGSSSRYWGQGTLVTVSSGGGGSGGGSGGGGSGGGSHHHHHH
B25: anti-DLL3 trispecific protein 2C07 (protein, part only; not given: anti-CD3 and anti-albumin domains, part only)
chain, part: EVQLVESGGGLVQPGGSLTLSCVASGSTSSINAMAWYRRAPGKQRELVAGISSDGSKVYADSVKGRFTISRDNAKNSVYLQMNSLRAEDTAVYYCYYFRSVSGSSMRYWGQGTLVTVSSGGGGSGGGSGGGGSGGGSHHHHHH
B26: anti-DLL3 trispecific protein 2D06 (protein, part only; not given: anti-CD3 and anti-albumin domains, part only)
chain, part: EVQLVESGGGLVQPGGSLTLSCVASGSTSSINAMGWYRRAPGKQRELVAGISSDGSKVYSDSVKGRFTISRDNAKNSVYLQMNSLRAEDTAVYYCYYFRTVSGSSSRYWGQGTLVTVSSGGGGSGGGSGGGGSGGGSHHHHHH
B27: anti-DLL3 trispecific protein 2B02 (protein, part only; not given: CD3 binder and albumin binder, part only)
chain, part: EVQLVESGGGLVQPGGSLTLSCVASGSTSSINAMAWYRRAPGKQRELVAGISSDGSKVYADSVKGRFTISRDNAKNSVYLQMNSLRAEDTAVYYCYYFRTKSGSSMRYWGQGTLVTVSSGGGGSGGGSGGGGSGGGSHHHHHH
B28: anti-DLL3 trispecific protein 2H07 (protein, part only; not given: anti-CD3 fragment and anti-albumin sdAb, part only)
chain, part: EVQLVESGGGLVQPGGSLTLSCVASGSTSSINAVGWYRRAPGKQRELVAGISSDGSTVYADSVKGRFTISRDNAKNSVYLQMNSLRAEDTAVYYCYYFRTVSGHSMRYWGQGTLVTVSSGGGGSGGGSGGGGSGGGSHHHHHH
B29: anti-DLL3 trispecific protein 2F09 (protein, part only; not given: anti-CD3 fragment and anti-albumin domain, part only)
chain, part: EVQLVESGGGLVQPGGSLTLSCVASGSTSSINAMAWYRRAPGKQRELVAGISSDGSKLYADSVKGRFTISRDNAKNSVYLQMNSLRAEDTAVYYCYYFRTVSGSSMRYWGQGTLVTVSSGGGGSGGGSGGGGSGGGSHHHHHH
B30: anti-DLL3 trispecific protein 1H07 (protein, part only; not given: anti-CD3 fragment and anti-albumin sdAb, part only)
chain, part: EVQLVESGGGLVQPGGSLTLSCVASGSTSSINAFGWYRRAPGKQRELVAGISSDGSKVYSDSVKGRFTISRDNAKNSVYLQMNSLRAEDTAVYYCYYFRTVSGSSMRYWGQGTLVTVSSGGGGSGGGSGGGGSGGGSHHHHHH

As usually defined, the Kd is the equilibrium constant for the complex coming apart.

The assay deals with biotinylated human DLL3 protein expressed as a human IgG1 fusion protein (human) (UniProt Q9NYJ7). Kind of assay: Octet BLI; biotinylated huDLL3-IgG1 fusion on streptavidin tips; single 50 nM; conditioned medium. Background: In BLI a coated tip is dipped into the sample, and binding shifts an interference pattern.
Chain of biotinylated human DLL3 protein expressed as a human IgG1 fusion protein (human) (Q9NYJ7 other isoform, or with tags, fused parts or gaps): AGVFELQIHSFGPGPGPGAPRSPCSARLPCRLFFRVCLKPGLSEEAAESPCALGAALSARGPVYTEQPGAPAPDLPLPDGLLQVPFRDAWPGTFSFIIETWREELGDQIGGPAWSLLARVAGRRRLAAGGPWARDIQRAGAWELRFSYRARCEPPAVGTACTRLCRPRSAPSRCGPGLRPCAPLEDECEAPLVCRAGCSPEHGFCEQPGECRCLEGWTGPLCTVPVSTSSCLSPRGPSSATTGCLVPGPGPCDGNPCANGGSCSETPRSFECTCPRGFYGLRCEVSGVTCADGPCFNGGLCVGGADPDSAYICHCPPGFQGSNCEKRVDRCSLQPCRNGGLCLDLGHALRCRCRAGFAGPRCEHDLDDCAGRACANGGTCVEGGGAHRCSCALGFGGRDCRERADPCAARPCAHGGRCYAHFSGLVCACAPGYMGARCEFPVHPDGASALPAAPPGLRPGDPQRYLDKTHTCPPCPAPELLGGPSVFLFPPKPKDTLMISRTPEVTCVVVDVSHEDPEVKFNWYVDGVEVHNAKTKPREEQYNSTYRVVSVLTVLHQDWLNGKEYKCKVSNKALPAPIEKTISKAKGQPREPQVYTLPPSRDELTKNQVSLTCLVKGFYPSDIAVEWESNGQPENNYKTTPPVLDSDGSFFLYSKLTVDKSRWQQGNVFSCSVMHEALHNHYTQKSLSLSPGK
The molecule B1 showed a Kd of 6.4 nM.

The molecule B2 had a Kd of 5.9 nM.

As for B3, the Kd is 6.6 nM.

In turn, B4 registered a Kd of 6.5 nM.

For B5, the equilibrium dissociation constant (Kd) stood at 6.3 nM.

In turn, B6 returned a Kd of 6.1 nM.

Turning to B7, the Kd came out at 6 nM.

For the molecule B8, the dissociation constant Kd was found to be 6.8 nM.

For B9, the Kd came out at 6 nM.

The molecule B10 registered a Kd of 6.1 nM.

Regarding B11, the Kd was 6.3 nM.

On to B12, for which the Kd was found to be 6.2 nM.

For B13, the Kd came to 6.7 nM.

On to B14, for which the dissociation constant Kd came out at 6.1 nM.

In the case of B15, the Kd stood at 6.2 nM.

Molecule B16 yielded a Kd of 6.6 nM.

B17: the Kd stood at 6 nM.

Molecule B18 had a Kd of 6.2 nM.

Molecule B19 had a Kd of 6.8 nM.

With B20, the Kd was 6.3 nM.

The molecule B21 displayed a Kd of 6.4 nM.

Molecule B22 showed a Kd of 6.5 nM.

The molecule B23 returned a Kd of 6.5 nM.

As to B24, the Kd amounted to 6.3 nM.

B25 returned a Kd of 6.2 nM.

B26 yielded a Kd of 6.6 nM.

In turn, B27 returned a Kd of 6.6 nM.

For B28, the Kd amounted to 6.1 nM.

B29 had a Kd of 6.5 nM.

B30: the Kd came out at 6.2 nM.

For the origin of these results see US20200095340A1.
